The target in the assay is Src-YN (mouse). Briefly: split reporter (BiFC, NanoBiT); BiFC with YFP fragments YC (155-238) and YN (1-154) in co-transfected CHO-K1 cells on fibronectin-coated coverslips; whole cells, fixed (also live cells and TIRFM), wide-field fluorescence; cells scored as background, ER + punctate or only punctate.

“YC-PTP1BWT (from UniProt P18031 1-435) (enzyme)”: the % of cells with BiFC signal (ER + punctate) came out at 86% and the % of cells with BiFC signal (only punctate) worked out at 14%.

These data come from paper PMC3372476.
